Measured values from patent US5973118.

Assays:
[1] = molecular target: recombinant plasminogen activator rPA (recombinant tPA derivative comprising the kringle 2 and protease domains) (Homo sapiens (Human)) (UniProt P00750); assay: affinity column: inhibitor coupled to CNBr-Sepharose, loaded with 2 MU r-PA/ml gel, eluted rPA by S2288 amidolytic activity, run 1
[2] = molecular target: recombinant plasminogen activator rPA (recombinant tPA derivative comprising the kringle 2 and protease domains) (Homo sapiens (Human)) (UniProt P00750); assay: affinity column: inhibitor coupled to CNBr-Sepharose, loaded with 2 MU r-PA/ml gel, eluted rPA by S2288 amidolytic activity, run 5
[3] = molecular target: recombinant plasminogen activator rPA (recombinant tPA derivative comprising the kringle 2 and protease domains) (Homo sapiens (Human)) (UniProt P00750); assay: affinity column: inhibitor coupled to CNBr-Sepharose, loaded with 2 MU r-PA/ml gel, eluted rPA by S2288 amidolytic activity, run 2
[4] = molecular target: recombinant plasminogen activator rPA (recombinant tPA derivative comprising the kringle 2 and protease domains) (Homo sapiens (Human)) (UniProt P00750); assay: affinity column: inhibitor coupled to CNBr-Sepharose, loaded with 2 MU r-PA/ml gel, eluted rPA by S2288 amidolytic activity, run 4
[5] = molecular target: recombinant plasminogen activator rPA (recombinant tPA derivative comprising the kringle 2 and protease domains) (Homo sapiens (Human)) (UniProt P00750); assay: affinity column: inhibitor coupled to CNBr-Sepharose, loaded with 2 MU r-PA/ml gel, eluted rPA by S2288 amidolytic activity, run 3
[6] = molecular target: recombinant plasminogen activator rPA (recombinant tPA derivative comprising the kringle 2 and protease domains) (Homo sapiens (Human)) (UniProt P00750); assay: affinity column: inhibitor coupled to CNBr-Sepharose, eluted rPA; reference seed-ETI-Sepharose

specific activity (U/mg), inhibition of trypsin with BAPA as substrate (trypsin) [U/mg]	Binding capacity MU/ml [1] [MU/ml]	Binding capacity MU/ml [2] [MU/ml]	Binding capacity MU/ml [3] [MU/ml]	Binding capacity MU/ml [4] [MU/ml]	Binding capacity MU/ml [5] [MU/ml]	fold higher binding capacity than seed-ETI-Sepharose [6] [fold]	Substance
0.88	1.04	0.98	0.95	1.01	1.08		ETI isolated from the seeds of Erythrina caffra [ETI (seeds)] (from UniProt P09943)
1.5	1.28	1.49	1.35	1.48	1.53	1.5	SerETI (recombinant ETI polypeptide in which the N-terminal Val is replaced by Ser)
1.07							recombinant, non-modified ETI (recETI) (from UniProt P09943)
